For ten molecules, apigenin glucosylation efficiency and naringenin glucosylation efficiency results are on record in patent publication US10647739B2, “Flavonoids O-A-glucosylated on the B cycle, method for the production thereof and uses” (Institut National de la Recherche Agronomique, priority 2014, dated 2020).

Changes are numbered by the printed parent chain. In names and notes the source's numbering stands.

The labels stand for the following.
B1: V331C: ASNp amylosucrase single mutant (protein, UniProt Q9ZEU2 1-636, looked up, variant V331C)
Amylosucrase: MLTPTQQVGLILQYLKTRILDIYTPEQRAGIEKSEDWRQFSRRMDTHFPKLMNELDSVYGNNEALLPMLEMLLAQAWQSYSQRNSSLKDIDIARENNPDWILSNKQVGGVCYVDLFAGDLKGLKDKIPYFQELGLTYLHLMPLFKCPEGKSDGGYAVSSYRDVNPALGTIGDLREVIAALHEAGISAVVDFIFNHTSNEHEWAQRCAAGDPLFDNFYYIFPDRRMPDQYDRTLREIFPDQHPGGFSQLEDGRWVWTTFNSFQWDLNYSNPWVFRAMAGEMLFLANLGVDILRMDAVAFIWKQMGTSCENLPQAHALIRAFNAVMRIAAPACFFKSEAIVHPDQVVQYIGQDECQIGYNPLQMALLWNTLATREVNLLHQALTYRHNLPEHTAWVNYVRSHDDIGWTFADEDAAYLGISGYDHRQFLNRFFVNRFDGSFARGVPFQYNPSTGDCRVSGTAAALVGLAQDDPHAVDRIKLLYSIALSTGGLPLIYLGDEVGTLNDDDWSQDSNKSDDSRWAHRPRYNEALYAQRNDPSTAAGQIYQGLRHMIAVRQSNPRFDGGRLVTFNTNNKHIIGYIRNNALLAFGNFSEYPQTVTAHTLQAMPFKAHDLIGGKTVSLNQDLTLQPYQVMWLEIA
B2: V331D: ASNp amylosucrase single mutant (protein, UniProt Q9ZEU2 1-636, looked up, variant V331D)
Amylosucrase: B1 Amylosucrase with C331D
B3: V331K: ASNp amylosucrase single mutant (protein, UniProt Q9ZEU2 1-636, looked up, variant V331K)
Amylosucrase: B1 Amylosucrase with C331K
B4: V331E: ASNp amylosucrase single mutant (protein, UniProt Q9ZEU2 1-636, looked up, variant V331E)
Amylosucrase: B1 Amylosucrase with C331E
B5: V331Y: ASNp amylosucrase single mutant (protein, UniProt Q9ZEU2 1-636, looked up, variant V331Y)
Amylosucrase: B1 Amylosucrase with C331Y
B6: V331G: ASNp amylosucrase single mutant (protein, UniProt Q9ZEU2 1-636, looked up, variant V331G)
Amylosucrase: B1 Amylosucrase with C331G
B7: V331H: ASNp amylosucrase single mutant (protein, UniProt Q9ZEU2 1-636, looked up, variant V331H)
Amylosucrase: B1 Amylosucrase with C331H
B8: V331I: ASNp amylosucrase single mutant (protein, UniProt Q9ZEU2 1-636, looked up, variant V331I)
Amylosucrase: B1 Amylosucrase with C331I
B9: V331F: ASNp amylosucrase single mutant (protein, UniProt Q9ZEU2 1-636, looked up, variant V331F)
Amylosucrase: B1 Amylosucrase with C331F
B10: R446Q: ASNp amylosucrase single mutant, SEQ ID NO: 8 (protein, listed as Neisseria polysaccharea)
chain: SPNSQYLKTRILDIYTPEQRAGIEKSEDWRQFSRRMDTHFPKLMNELDSVYGNNEALLPMLEMLLAQAWQSYSQRNSSLKDIDIARENNPDWILSNKQVGGVCYVDLFAGDLKGLKDKIPYFQELGLTYLHLMPLFKCPEGKSDGGYAVSSYRDVNPALGTIGDLREVIAALHEAGISAVVDFIFNHTSNEHEWAQRCAAGDPLFDNFYYIFPDRRMPDQYDRTLREIFPDQHPGGFSQLEDGRWVWTTFNSFQWDLNYSNPWVFRAMAGEMLFLANLGVDILRMDAVAFIWKQMGTSCENLPQAHALIRAFNAVMRIAAPAVFFKSEAIVHPDQVVQYIGQDECQIGYNPLQMALLWNTLATREVNLLHQALTYRHNLPEHTAWVNYVRSHDDIGWTFADEDAAYLGISGYDHRQFLNRFFVNRFDGSFARGVPFQYNPSTGDCQVSGTAAALVGLAQDDPHAVDRIKLLYSIALSTGGLPLIYLGDEVGTLNDDDWSQDSNKSDDSRWAHRPRYNEALYAQRNDPSTAAGQIYQDLRHMIAVRQSNPRFDGGRLVTFNTNNKHIIGYIRNNALLAFGNFSEYPQTVTAHTLQAMPFKAHDLIGGKTVSLNQDLTLQPYQVMWLEIA

One test in a line: apigenin glucosylation acceptor reaction with recombinant glucansucrases (microplate screening). The test is classed as biochemical. The following applies: sucrose 146 mM, apigenin 2.5 mM, 3% DMSO, 30° C., 24 h; HPLC-UV 340 nm peak areas. Here is the method:
(§1) The enzymatic extracts obtained are used to carry out the flavonoid glucosylation enzymatic screening reactions. The enzymatic activity of each centrifuged cell lysate is evaluated in the microplate format, by final weight after 30 minutes incubation in the presence of a final concentration of 146 mM of sucrose, by assaying the reducing sugars with 3,5-dinitrosalicylic acid (DNS). Finally, after dilution in ultrapure water, the absorbance is read at 540 nm.
(§2) The flavonoid acceptor reactions are then carried out in deep-well microplates, in a volume of 300 μl, at final concentrations of sucrose of 146 mM and of flavonoid of 2.5 mM (apigenin) or 5 mM (naringenin) (initially dissolved in 100% DMSO), and 140 μl of centrifuged cell lysate.
(§3) The final DMSO concentration in the reaction medium is 3% (v/v).
(§4) The incubation is carried out at 30° C. and at 700 rpm. After 24 hours, the enzymes are denatured at 95° C. for 15 minutes. These microplates are stored at −80° C. with a view to rapid evaluation of the flavonoid glucosylation by liquid-phase chromatography coupled to mass spectrometry (HPLC-MS or LC-MS).
(§5) With a view to their analyses by HPLC-MS, the extensively homogenized reaction media are diluted to 1/30th in DMSO. The separation of the flavonoids and of their glucosylated forms is carried out in reverse phase with a ProntoSlL Eurobond® 53×3.0 mm 120-3-C18-AQ column (porosity of 120 Å, particle size of 3 μm, C18 grafting, Bischoff Chromatography, Germany).
(§6) The flavonoid glucosylation efficiency was determined from the following formula: Glucosylation efficiency=(Σ(area of the peak of glucosylated flavonoid(s)))/(Σ(area of the peak of glucosylated flavonoid(s))+area of the peak of residual aglycone flavonoid)×100
The flavonoid glucosylation efficiencies, expressed as a percentage, were calculated from the areas of the peaks of the various products analyzed, as described in example 1, by HPLC with a UV detector (340 nm) after 24 h of reaction.
For B1, the apigenin glucosylation efficiency was 1.2%.

On to B2, for which the apigenin glucosylation efficiency came out at 0.9%.

B3: the apigenin glucosylation efficiency came to 0.2%.

In the case of B4, the apigenin glucosylation efficiency is listed as 0.7%.

Turning to B5, the apigenin glucosylation efficiency came to 0.4%.

In the case of B6, the apigenin glucosylation efficiency is reported as 1.9%.

For B7, the apigenin glucosylation efficiency came out at 0.1%.

As to B8, the apigenin glucosylation efficiency was found to be 0.3%.

Turning to B9, the apigenin glucosylation efficiency was found to be 0.4%.

Regarding B10, the apigenin glucosylation efficiency is given as 1.9%.

A short description of a further test: naringenin glucosylation acceptor reaction with recombinant glucansucrases (microplate screening). The test is classed as biochemical. The following applies: sucrose 146 mM, naringenin 5 mM, 3% DMSO, 30° C., 24 h; HPLC-UV 340 nm peak areas. The method, then:
as §1, §2, §3, §4, §5, §6
The flavonoid glucosylation efficiency was determined from the formula set out in example 2. The flavonoid glucosylation efficiencies, expressed as a percentage, were calculated from the areas of the peaks of the various products analyzed, as described in example 1, by HPLC with a UV detector (λ340 nm), after 24 h of reaction.
On to B1, for which the naringenin glucosylation efficiency came out at 5.4%.

On to B2, for which the naringenin glucosylation efficiency is 0.0%.

B3: the naringenin glucosylation efficiency turned out to be 0.0%.

As to B4, the naringenin glucosylation efficiency amounted to 0.0%.

For the molecule B5, the naringenin glucosylation efficiency turned out to be 3.8%.

With B6, the naringenin glucosylation efficiency came to 6.9%.

Turning to B7, the naringenin glucosylation efficiency turned out to be 0.0%.

With B8, the naringenin glucosylation efficiency is recorded as 0.0%.

Turning to B9, the naringenin glucosylation efficiency was 0.0%.

Regarding B10, the naringenin glucosylation efficiency was 0.0%.
